Test results from paper PMC11437077.

Molecular target: mouse PD-1 wild type expressed on CHO cells (mouse) (UniProt Q02242)
Assay: biomembrane force probe (BFP), force-ramp spectroscopy (rupture force); PD-L1- or PD-L2-coated glass bead on a micropipette-aspirated RBC against a CHO cell expressing PD-1; continuous retraction until bond rupture; nominal loading rate 1000 pN/s; BFP spring constant 0.3 pN/nm

Chain of mouse PD-L2 with C-terminal biotin (Q9WUL5 20-221): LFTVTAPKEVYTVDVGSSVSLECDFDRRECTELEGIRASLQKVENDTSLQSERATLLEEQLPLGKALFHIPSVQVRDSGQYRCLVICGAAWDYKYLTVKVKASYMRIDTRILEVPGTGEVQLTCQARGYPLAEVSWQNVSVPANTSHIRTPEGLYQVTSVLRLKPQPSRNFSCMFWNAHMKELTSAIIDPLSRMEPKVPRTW
Chain of mouse PD-1 wild type expressed on CHO cells (mouse) (Q02242 25-288): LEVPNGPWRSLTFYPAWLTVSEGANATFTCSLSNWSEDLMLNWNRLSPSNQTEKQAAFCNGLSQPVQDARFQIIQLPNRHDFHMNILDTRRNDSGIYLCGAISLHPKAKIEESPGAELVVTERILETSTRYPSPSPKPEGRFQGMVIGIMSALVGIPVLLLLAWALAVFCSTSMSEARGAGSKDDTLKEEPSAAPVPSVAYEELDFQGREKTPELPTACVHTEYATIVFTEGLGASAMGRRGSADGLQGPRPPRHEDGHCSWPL

mouse PD-L2 with C-terminal biotin (from UniProt Q9WUL5 20-221) (ligand)
F1/2 (force at which 50% of the bonds rupture): 12.1 pN
